Experiment [1] addresses T1, sEGFR (soluble extracellular region of EGFR), wild-type (UniProt P00533 25-645, limits assumed).
T1 construct: extracellular domain; also called EGFR soluble extracellular domain
As to the kind of experiment: SPR (Biacore 3000), equilibrium response, sEGFR over immobilized Fab72000.

Another experiment has as its target T2, sEGFR K454A/T459A/S460A (UniProt P00533 25-645, limits assumed).
T2 construct: extracellular domain; Positions are in mature EGFR numbering; also called triple alanine mutant
As to the kind of experiment: SPR, equilibrium response, mutated sEGFR passed over immobilized Fab72000 [2A].

A further experiment addresses T3, sEGFR T459A/S460A/K463A (UniProt P00533 25-645, limits assumed).
T3 construct: extracellular domain; Positions are in mature EGFR numbering; also called triple alanine mutant
Described as above.

In experiment [2] the target is T4, sEGFRd3 (isolated domain III of sEGFR; amino acids 310-514 of mature EGFR) (UniProt P00533 334-538).
T4 construct: range 310-514; The range 310-514 counts on mature EGFR, not on the precursor; also called soluble extracellular EGFR domain III
As to the kind of experiment: SPR (Biacore 3000), equilibrium response, sEGFRd3 over immobilized Fab72000. (In general: In SPR one partner is held on a chip, and binding of the other changes the refractive index at the surface.)

This is an account of results in patent publication US20090175858A1 (Merck KGaA, published 2009).

For orientation: Kd means the constant that tells how readily two partners part at equilibrium. Low values mean a tighter complex, high ones a looser complex.

B1: Fab fragment of matuzumab (Fab72000) (Fab, V domains shown)
VH: QVQLVQSGAEVKKPGASVKVSCKASGYTFTSHWMHWVRQAPGQGLEWIGEFNPSNGRTNYNEKFKSKATMTVDTSTNTAYMELSSLRSEDTAVYYCASRDYDYDGRYFDYWGQGTLVTVSS
VL: DIQMTQSPSSLSASVGDRVTITCSASSSVTYMYWYQQKPGKAPKLLIYDTSNLASGVPSRFSGSGSGTDYTFTISSLQPEDIATYYCQQWSSHIFTFGQGTKVEIKR
notes: also called Fab fragment of EMD 72000
As to B1, the Kd in experiment [1] stood at 103 nM; in experiment [2], 50.1 nM. The binding result with sEGFR K454A/T459A/S460A and with sEGFR T459A/S460A/K463A was “no binding (tested: 2000 nM)” in each case.
